Here are results for 4 molecules from patent US20120003245A1 (UNIVERSITY OF GUELPH, published 2012).

This test deals with α-cobratoxin (Naja kaouthia, UniProt P01391).

What is called Kd is the free concentration of one partner at which half of the binding sites on the other are occupied at equilibrium, for simple one-to-one binding. Lower therefore signals higher affinity. As a reminder, the koff is the rate constant with which the complex falls apart. Read a high koff as fast dissociation. As a reminder, the kon is the rate constant with which the complex forms. Read a low kon as slow association.

α-cobratoxin, sequence (P01391 whole entry): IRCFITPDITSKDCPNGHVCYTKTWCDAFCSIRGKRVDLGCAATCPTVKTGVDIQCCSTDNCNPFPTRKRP

B1: anti-α-cobratoxin VHH C19 (VHH)
VHH: QVKLEESGGGLAQAGGSLRLSCIGSGDISSFNAMGWYRQVPGKQRELVAFISSGGRSKYTDSVKGRFTISGDNAKNTVYLQMIDLKPEDTAVYYCNAGSVVSYETGNYYEPSNYWGQGTQVTVSS
B1 came in with a Kd of 25 nM, a koff of 0.01 s⁻¹ and a kon of 580000 M⁻¹ s⁻¹.

B2: anti-α-cobratoxin VHH C20 (VHH)
VHH: QVKLEESGGGLVQPGGSLRLSCVGSGSISSFNGMGWYRQVPGKQRELVAFISSGGRSKYTDSVKGRFTISGDNAKSTVYLQMINLKPEDTAVYYCNVGSVLSYVTGNYYEPSDYWGQGTQVTVSS
Molecule B2 returned a dissociation constant (Kd) of 1 nM, an off-rate constant (koff) of 0.0017 s⁻¹ and a kon of 1.8e+06 M⁻¹ s⁻¹.

B3: anti-α-cobratoxin VHH C2 (VHH)
VHH: QVKLEESGGGLVLPGGSLRLSCAASGSISSIYAMGWYRQAPGKQREVVAVITNGNSPNYADSVKGRFTISRDNAKNTVYLQMNSLKPEDTAVYYCNVEGVRYGDSWYDGDYWGQGTQVTVSS
B3: the affinity, expressed as Kd, was 0.4 nM; the koff was 0.00019 s⁻¹; the kon was 520000 M⁻¹ s⁻¹.

B4: anti-α-cobratoxin VHH C43 (VHH)
VHH: RVKLEESGGGLVQAGGSLRLSCAVSGSTFDDYAIGWYRQAPGKQREVVAVITNGNSPNYADSVKGRFTISRDNAKNTVYLQMNSLKPEDTAVYYCNVEGVRYGDSWYDGDYWGQGTQVTVSS
B4 registered a Kd of 24 nM, a koff of 0.0068 s⁻¹ and an on-rate constant (kon) of 290000 M⁻¹ s⁻¹.
